From the nanobody polyreactivity screen of Harvey et al. (2022)

Assay: yeast display, Sf9 membrane polyspecificity reagent, FACS + sequencing; frameworks hold sequencing errors
Outline: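 Using colony PCR, genes from sorted yeast display clones were amplified, then sequenced on MiSeq at 2 × 250 and filtered by CDR length. The clones had been stained with 10% biotinylated, detergent-solubilized Sf9 membrane reagent for 1 hour at 4 °C and sorted by FACS into low and high (top ~1%) gates on anti-HA and streptavidin fluorescence. Polyreactivity labels come from the gate of origin.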

Q: For “QVQLVESGGGLVQAGGSLRLSCAASGRTFGSNAMGWYRQAPGKERELVAAITSGGGTYYADSVKGRFTISRDNAKNTVYLQMNSLKPEDTAVYYCNKLGTSFRRDYGSWGQGTQVTVSS”, which “polyreactivity (PSR sort gate)” value is on record?
A: low polyreactivity

Q: Which “polyreactivity (PSR sort gate)” value does the source give for “QVQLVESGGGLVQAGGSLRLSCAASGRTFGSYAMAWYRQAPGKERELVAAITWSGTGTYYADSVKGRFTISRDNAKNTVYLQMKSLKPEVTAVYYCAARYASGRRGEYWGQGTQVTVSS” here?
A: high polyreactivity

Q: For “QVQLVESGGGLVQAGGSLRLSCAASGRTFGSYAMGWNRPATRLERELVAAISDGGSTNYADSVKGRFTISRDNAKITVYLQMNSLTPEDTAVYYCAAEIFFAVFRFYYSGQGTQVTVSS”, which “polyreactivity (PSR sort gate)” value is on record?
A: low polyreactivity

Q: Which “polyreactivity (PSR sort gate)” value does the source give for “QVQLVESGGGLVQAGGSLRLSCAASGRTFGSYAMGWYRQAPGKERELVAGISWSGGITYYADSVKGRFTISRDNAKNTVYLQMNSLKPEDTAVYYCAASPRRDENAGRVRLYYWGQGTQVTVSS” here?
A: high polyreactivity

Q: Which “polyreactivity (PSR sort gate)” value does the source give for “QVQLVESGGGLVQAGGSLRLSCAASGRTFGTNALGWYRQAPGKERELVASIDLSADSTYYADSVKGRFTISRDNAKKTVYLQMNSLKPEDTAVYYCNKDGYPWPPNLDYWGQGTQVTVSS” here?
A: low polyreactivity

Q: Which “polyreactivity (PSR sort gate)” value does the source give for “QVQLVESGGGLVQAGGSLRLSCAASGRTFGTNTMGWYRQAPGKERELVAAIRRGGGTNYADSVKGRFTISRDNAKNTVYLQMNSLKPEDTAVYYCAAVRWNTGVGYYYWGQGTQVTVSS” here?
A: high polyreactivity

Q: With “QVQLVESGGGLVQAGGSLRLSCAASGRTFGVNAMGWYRQAPGKEREFVAAITWSGGSTYYADSVKGRFTISRDNAKNTVYLQMISLKPEDTAVYYCAAVQWRYDGSFTGYGYWGQGTQVTVSS” as the sequence, how does the “polyreactivity (PSR sort gate)” value read?
A: low polyreactivity

Q: For “QVQLVESGGGLVQAGGSLRLSCAASGRTFGVNAMGWYRQAPGKERELVARIRVSGGRTYYADSVKGRFTISRDNAKNTVYLQMNSLKPEDTAVYYCNAGYTYNRVIWPYYYWGQGTQVTVSS”, which “polyreactivity (PSR sort gate)” value is on record?
A: high polyreactivity

Q: For “QVQLVESGGGLVQAGGSLRLSCAASGRTFGVNAMGWYRQAPGKERELVATIRRGGSTYYADSVKGRFTISRDNAKNTVYLQMNSLKPEDTAVYYCNASHVTWNRKYDYWGQGTQVNVSS”, which “polyreactivity (PSR sort gate)” value is on record?
A: low polyreactivity

Q: Which “polyreactivity (PSR sort gate)” value does the source give for “QVQLVESGGGLVQAGGSLRLSCAASGRTFGVYALGWYRQAPRKERELVAGIRWRGGSTYYADSVKGRFTISRDNAKNTVYLQMNSLKPEDTAVYYCAADVYLVKYDYWGQGTQVTVSS” here?
A: low polyreactivity

Q: Which “polyreactivity (PSR sort gate)” value does the source give for “QVQLVESGGGLVQAGGSLRLSCAASGRTFGVYAMGWYRQAPGKERELVATIRTTGSTNYADSVKGRFTISRDNAKYTVYLQMNSVKTEDTAVYYCAARLRQSKYYPYTTFTYDYWGQGTQVTVSS” here?
A: high polyreactivity

Q: With “QVQLVESGGGLVQAGGSLRLSCAASGRTFGVYAMGWYRQAPWKERELVAGIRWRGGSTYYADSVKGRFTISRDNAKNTVYLQMNSLKPEDTAVYYCAADVYLVKYDYWGQGTQVTVSS” as the sequence, how does the “polyreactivity (PSR sort gate)” value read?
A: low polyreactivity

Q: Which “polyreactivity (PSR sort gate)” value does the source give for “QVQLVESGGGLVQAGGSLRLSCAASGRTFGWNAMGWYRQAPGKERELVASIRYSGGTTYYADSVKGRFTISRDNAKNTVYLQMKSLKPEDTAVYYCNSAYYNTGATRPYGYGYWGQGTQVTVSS” here?
A: low polyreactivity

Q: With “QVQLVESGGGLVQAGGSLRLSCAASGRTFGWNARGWYRQAPGKEKELVAAISWSGTNTYYADSVKGRFTISRDNAKNTVYLQMNSLKPEDTAVYYCAARDWTGSWNGYWSCEYNYWGQGTQVTGSS” as the sequence, how does the “polyreactivity (PSR sort gate)” value read?
A: low polyreactivity

Q: Which “polyreactivity (PSR sort gate)” value does the source give for “QVQLVESGGGLVQAGGSLRLSCAASGRTFGWYAMGSYRQAPGKERELVAAITSGTSTYYADSVKGRFTISRDNAKYTVYLQMNSRKPEDTAVYYCAVDRGISVGYTRFDYWGQGTQVTVSS” here?
A: low polyreactivity

Q: With “QVQLVESGGGLVQAGGSLRLSCAASGRTFGWYAMGWYRQAPGKEREFVAVISRSGTNTYYADSVKGRFTISRDNAKNTVYLQMNSLKPEDTAVYYCATYWSLSQSRQGDYWGQGTQVTVSS” as the sequence, how does the “polyreactivity (PSR sort gate)” value read?
A: high polyreactivity

Q: For “QVQLVESGGGLVQAGGSLRLSCAASGRTFGWYAMGWYRQAPGKERELVAAISTRGTRTYYADSVKGRFTISRDNAKNTVYLQMNSLKPEDTAVYYCNAKRRAVTTAHGIPEEDYWGQGTQVTVSS”, which “polyreactivity (PSR sort gate)” value is on record?
A: high polyreactivity

Q: For “QVQLVESGGGLVQAGGSLRLSCAASGRTFGWYTMGWYRPAPGKERELVAAISRSGTSTYYADSVKGRFTISRDNAKNTVYLQMNSLKQEDTAVYYCAQYVNPRGGNYWGQGTQVTVSS”, which “polyreactivity (PSR sort gate)” value is on record?
A: high polyreactivity

Q: With “QVQLVESGGGLVQAGGSLRLSCAASGRTFGYNAMGWYRKAPGKEREFVAAISWSGGRTYYADSVKGRFTISRDNAKNTVYLQMNSLKPEDTAVYYCAAGFGDGPGNGYYTRYSWDDDYWGQGTQVTVSS” as the sequence, how does the “polyreactivity (PSR sort gate)” value read?
A: low polyreactivity

Q: With “QVQLVESGGGLVQAGGSLRLSCAASGRTFGYNAMGWYRQAPGKERELVAAITIGGSTNYADSVNGRFTISRDNAKNTVYLQMNSLKPEDTAVYYCAAYDTLLYWVEFYYWGQGTQVTVSS” as the sequence, how does the “polyreactivity (PSR sort gate)” value read?
A: low polyreactivity

Q: For “QVQLVESGGGLVQAGGSLRLSCAASGRTFGYNAMGWYRQAPGKERELVASISYRGGSTYYADSVKGRFTISRDNAKNTVYLQMNSLKPEDTAVYYCNKYYVWREYYWGQGTQVTVSS”, which “polyreactivity (PSR sort gate)” value is on record?
A: high polyreactivity

Q: For “QVQLVESGGGLVQAGGSLRLSCAASGRTFGYNAMGWYRQAPGKERELVATITWNGGRTYYADSVKGRFTISRDNAKNTVYLQMNSLKPEDTAVYYCAKGYPIIGRHGHWGQGTQVTVSS”, which “polyreactivity (PSR sort gate)” value is on record?
A: high polyreactivity

Q: With “QVQLVESGGGLVQAGGSLRLSCAASGRTFGYNAMGWYRQAPGKERQLVAAINWSGASTYYADSVKGRFTISRDNAKNTVYLQMNSLKPEDTAVYYCAADYSYIYGFDYWGQGTQVTVSS” as the sequence, how does the “polyreactivity (PSR sort gate)” value read?
A: low polyreactivity

Q: For “QVQLVESGGGLVQAGGSLRLSCAASGRTFGYNAMGWYRQAPGKESELVAVISRGSRTYYADSVKGRFTISRDNAKNTVYLQMNSLKPEDTAVYYCAADYEYSGYGYWGQGTQVTVSS”, which “polyreactivity (PSR sort gate)” value is on record?
A: high polyreactivity

Q: For “QVQLVESGGGLVQAGGSLRLSCAASGRTFGYNTMGWYRQAPGKERELVAVITQGVDITYYADSVKGRFTISRDNAKNTVYLQMNSLKPEDTAVYYCNTAGQDAEYDYWGQGTQVTVSS”, which “polyreactivity (PSR sort gate)” value is on record?
A: low polyreactivity

Q: Which “polyreactivity (PSR sort gate)” value does the source give for “QVQLVESGGGLVQAGGSLRLSCAASGRTFGYYAMGWYRPAPGKEGELVAVITWSGDSTYYADSVKGRFTISRDNAKNTVYLQMNSLKPEDTAVYYCNADSGNAGTAYDDYDYWGQGTQVTVSS” here?
A: low polyreactivity

Q: Which “polyreactivity (PSR sort gate)” value does the source give for “QVQLVESGGGLVQAGGSLRLSCAASGRTFGYYAMGWYRPAPGKERELVAAISSNTDSTYYADSVKGRFTISRDNAKNTVYLQMNSLKPEDTAVYYCAAEAYSYYPGTYEDDYWGQGTQVTVSS” here?
A: low polyreactivity

Q: With “QVQLVESGGGLVQAGGSLRLSCAASGRTFGYYAMGWYRQAPGKERELFDAITGRTSRTYYADSVKGRFTISRDNAKNTVYLQMNSLKPEDTAVYYCAARYTRWRYNYKDYDYWGQGTQVTVSS” as the sequence, how does the “polyreactivity (PSR sort gate)” value read?
A: high polyreactivity

Q: With “QVQLVESGGGLVQAGGSLRLSCAASGRTFGYYAMGWYRQAPGKERELVAAIRSTGSTNYADSVKGRFTISRDNAKNTVYLQMNSLKPDDTAVYYCNADPWWRFDYWGQGTQVTVSS” as the sequence, how does the “polyreactivity (PSR sort gate)” value read?
A: low polyreactivity

Q: With “QVQLVESGGGLVQAGGSLRLSCAASGRTFGYYAMGWYRQAPGKERELVAAISGNGDNTYYADSVKGRFTISRDNAKNTVYLQMNCLIPEDTAVYYCSLWYRYKYAPYRLHGYWGQGTQVTVSS” as the sequence, how does the “polyreactivity (PSR sort gate)” value read?
A: high polyreactivity

Q: For “QVQLVESGGGLVQAGGSLRLSCAASGRTFGYYAMGWYRQAPGKERELVAAITLSGGSTYYADSVKGRFTISRDNAKNTVYLQMNSLKPEDTAVYYCAAKWWHFYPYDYWGQGTQVTVSS”, which “polyreactivity (PSR sort gate)” value is on record?
A: high polyreactivity

Q: Which “polyreactivity (PSR sort gate)” value does the source give for “QVQLVESGGGLVQAGGSLRLSCAASGRTFGYYAMGWYRQAPGKERELVAGIRSSGGSTYYADSVKGRFTISRDNAKNTVYLQMNSLKAEDTAVYYCAARLRSYNYRYGYDYWGQGTQVTVSS” here?
A: high polyreactivity

Q: With “QVQLVESGGGLVQAGGSLRLSCAASGRTFGYYAMGWYRQAPGKERELVAPISWSGANTYYADSVKGRFTISRDNAKNTVYLQMNSLKPEDTAVYYCAAVRYYSYAYSIRYGYWGQGTQVTVSS” as the sequence, how does the “polyreactivity (PSR sort gate)” value read?
A: high polyreactivity

Q: With “QVQLVESGGGLVQAGGSLRLSCAASGRTFGYYTMGWYRQAPGKEWELVATIRWSGGSTYADSVKGRFTISRDNAKNTVYLQLNSLKPEDTAVYYCYVDPSYYKILFNGFYYWGQGTQVTVSS” as the sequence, how does the “polyreactivity (PSR sort gate)” value read?
A: high polyreactivity

Q: Which “polyreactivity (PSR sort gate)” value does the source give for “QVQLVESGGGLVQAGGSLRLSCAASGRTFGYYTMGWYRQSPGKERELVATISSDGTTNYADSVKGRFTISRDNAKNTVYLQMNSLKPEDTAVYYCNADFRLQYYYRIYDYWGQGTQVTVSS” here?
A: low polyreactivity

Q: For “QVQLVESGGGLVQAGGSLRLSCAASGRTFHAYVMGWYRQAPGKERELVADISSGGDTYADSVKGRFTISRDNAKNTVYLQMNSLKPEDTAVYYCAVDLIQDESRYWGQGTQVTVSS”, which “polyreactivity (PSR sort gate)” value is on record?
A: low polyreactivity

Q: For “QVQLVESGGGLVQAGGSLRLSCAASGRTFHRYAMGWYRQAPGKERELVATISRGGSTNYADSVKGRFTISRDNAQTTVYLQRNSLKTEETAVYYCAREYYGSWDSGGGGYWGQGTQVTVAS”, which “polyreactivity (PSR sort gate)” value is on record?
A: high polyreactivity

Q: With “QVQLVESGGGLVQAGGSLRLSCAASGRTFHSYAMGWYRPAPGKETELVAGISWGGTRTTYADSVTGRFTISRDNAKNTVYLQMNSLKPEDTAVYYCNAVYYALGRSPPDYGYWGQGTQVTVSS” as the sequence, how does the “polyreactivity (PSR sort gate)” value read?
A: low polyreactivity

Q: Which “polyreactivity (PSR sort gate)” value does the source give for “QVQLVESGGGLVQAGGSLRLSCAASGRTFHWYTMGWYRLAPGKERELVAAISWSGTTTYYADSVKGRFTISRDNAKNTVYVQMNSLKPEDTAVYYCAFPTYNHNPVSAMTYYYWGQGTQVTVSS” here?
A: low polyreactivity

Q: With “QVQLVESGGGLVQAGGSLRLSCAASGRTFHYNVMGWYRQAPGKESELVAASTNTGGSTYYADSVKGRFTISRDNAKNTVYLQMNSLKPEDTAVYYCAAVIWGRRYGAYPYEYWGQGTQVTVSS” as the sequence, how does the “polyreactivity (PSR sort gate)” value read?
A: low polyreactivity
